Measured values published in article PMC10617769, “Dietary potassium stimulates Ppp1Ca-Ppp1r1a dephosphorylation of kidney NaCl cotransporter and reduces blood pressure” (The Journal of Clinical Investigation, 2023).

Molecular target: T1, recombinant α catalytic subunit of rabbit protein phosphatase 1 (Ppp1ca) (rabbit, UniProt P62139 1-330)
T1 construct: α catalytic subunit of protein phosphatase 1 (Ppp1ca), rabbit, recombinant; also called PP1A; Protein Phosphatase 1 Catalytic Subunit, α-isoform; source: bought: MilliporeSigma, P7937 (recombinant)
T1 sequence (P62139 whole entry, canonical isoform): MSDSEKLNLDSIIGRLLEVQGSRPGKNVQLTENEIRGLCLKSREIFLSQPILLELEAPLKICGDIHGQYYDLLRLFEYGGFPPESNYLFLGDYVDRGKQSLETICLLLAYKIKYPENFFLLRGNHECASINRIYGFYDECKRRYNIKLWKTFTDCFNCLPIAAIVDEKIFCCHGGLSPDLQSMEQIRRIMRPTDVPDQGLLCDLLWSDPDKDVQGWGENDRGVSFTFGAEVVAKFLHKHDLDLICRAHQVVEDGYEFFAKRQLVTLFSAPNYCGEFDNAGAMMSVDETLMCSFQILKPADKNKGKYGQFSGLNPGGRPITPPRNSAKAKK
Assay: pull-down; GST-(N) NCC or GST alone on glutathione-agarose beads with 2–10 μg recombinant phosphatase; 12- to 18-hour incubation in PBS with 0.5 mM TCEP at 4°C; bound protein detected by Western blotting
Settings: both partners purified

binding result: binds
B1: GST fusion protein of the cytoplasmic amino terminus of rat NCC (amino acids 1-133) (domain or fragment, UniProt P55018 1-133, looked up)
chain: MAELPVTEMPGDALCSGRFTISTLLGGDEPPPAACDNSQPSHLTHGSTLYLRTFGYNTIDVVPAYEHYANSALPGEPRKVRPTLADLHSFLKQEGSHLHALAFDGRPGHELTDGLVEDETGANSEKSPGEPVR
notes: thiazide-sensitive sodium chloride cotransporter NCC (SLC12A3), rat, NP_062218, cytoplasmic amino terminus, amino acids 1-133; cloned into pGEX4T1; also called GST-NCC-(N); GST-(N) NCC; source: E. coli C43 (DE3), recovered by glutathione chromatography, kept on beads
